Reference: IntAct's records for PubMed 12799422

B1: Adapter molecule crk (Homo sapiens), P46108 (parent)
chain: MAGNFDSEERSSWYWGRLSRQEAVALLQGQRHGVFLVRDSSTSPGDYVLSVSENSRVSHYIINSSGPRPPVPPSPAQPPPGVSPSRLRIGDQEFDSLPALLEFYKIHYLDTTTLIEPVSRSRQGSGVILRQEEAEYVRALFDFNGNDEEDLPFKKGDILRIRDKPEEQWWNAEDSEGKRGMIPVPYVEKYRPASASVSALIGGNQEGSHPQPLGGPEPGPYAQPSVNTPLPNLQNGPIYARVIQKRVPNAYDKTALALEVGELVKVTKINVSGQWEGECNGKRGHFPFTHVRLLDQQNPDEDFS
partner: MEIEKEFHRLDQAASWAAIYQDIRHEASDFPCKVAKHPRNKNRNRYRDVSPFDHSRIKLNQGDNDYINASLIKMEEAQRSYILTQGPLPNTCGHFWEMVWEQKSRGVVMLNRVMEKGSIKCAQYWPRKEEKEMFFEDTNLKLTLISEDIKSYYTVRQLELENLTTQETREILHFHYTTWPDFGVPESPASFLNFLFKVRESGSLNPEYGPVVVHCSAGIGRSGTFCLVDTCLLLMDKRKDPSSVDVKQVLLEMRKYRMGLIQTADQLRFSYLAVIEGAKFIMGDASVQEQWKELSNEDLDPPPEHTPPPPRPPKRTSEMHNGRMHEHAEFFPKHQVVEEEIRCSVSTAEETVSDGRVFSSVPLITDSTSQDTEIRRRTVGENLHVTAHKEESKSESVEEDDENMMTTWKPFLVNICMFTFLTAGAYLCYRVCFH
B2: Adapter molecule crk (Homo sapiens), P46108 (parent)
chain: B1 chain
partner: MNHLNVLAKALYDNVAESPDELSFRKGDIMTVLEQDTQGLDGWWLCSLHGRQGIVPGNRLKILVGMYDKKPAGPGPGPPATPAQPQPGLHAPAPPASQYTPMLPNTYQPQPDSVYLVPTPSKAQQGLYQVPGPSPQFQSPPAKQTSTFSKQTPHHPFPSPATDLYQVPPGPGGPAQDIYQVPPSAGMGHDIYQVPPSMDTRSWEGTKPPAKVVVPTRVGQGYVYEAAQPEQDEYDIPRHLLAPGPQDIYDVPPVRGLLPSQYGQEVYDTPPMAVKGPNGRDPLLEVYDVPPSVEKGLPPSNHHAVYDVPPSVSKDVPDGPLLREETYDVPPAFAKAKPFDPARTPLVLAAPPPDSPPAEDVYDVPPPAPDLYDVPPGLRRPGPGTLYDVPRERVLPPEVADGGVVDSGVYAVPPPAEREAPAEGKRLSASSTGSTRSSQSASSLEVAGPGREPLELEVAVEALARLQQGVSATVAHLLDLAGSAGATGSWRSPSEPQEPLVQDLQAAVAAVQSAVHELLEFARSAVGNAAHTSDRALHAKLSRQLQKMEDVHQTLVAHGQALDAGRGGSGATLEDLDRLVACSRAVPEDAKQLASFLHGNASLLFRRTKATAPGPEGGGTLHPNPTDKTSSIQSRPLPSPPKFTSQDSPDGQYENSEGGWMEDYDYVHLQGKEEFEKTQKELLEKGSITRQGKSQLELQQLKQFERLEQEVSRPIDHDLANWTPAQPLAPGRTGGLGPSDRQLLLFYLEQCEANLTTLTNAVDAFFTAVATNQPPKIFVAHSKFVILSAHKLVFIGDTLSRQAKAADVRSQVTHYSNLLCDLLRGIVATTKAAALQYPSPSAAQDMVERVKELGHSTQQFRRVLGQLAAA
B3: Adapter molecule crk (Homo sapiens), P46108 (parent)
chain: B1 chain
B4: Tyrosine-protein phosphatase non-receptor type 1 (Gallus gallus (Chicken)), O13016 (parent)
chain: B1 partner

Variants of: B1
Conditions: with ptn1_chick PTPN1, O13016

Variant | effect of a mutation on the interaction
Y221F | decreasing interaction

Variants of: B2
Conditions: with bcar1_human BCAR1, P56945

Variant | effect of a mutation on the interaction
Y221F | increasing interaction

Variants of: B3
Conditions: with paxi_human PXN

Variant | effect of a mutation on the interaction
Y221F | increasing interaction

Variants of: B4
Conditions: with crk_human CRK, P46108

Variant | effect of a mutation on the interaction
C215S | disrupting interaction
